Data reported in doi:10.1101/2020.11.18.389114.
Like-named read-outs stand apart in the source and are kept apart here. Where no end group is shown, it is not given here. [ ]: non-standard residue; d: D form. The star is where a group is joined. FITC = O=C1OC2(c3ccc(O)cc3Oc3cc(O)ccc32)c2ccc(NC(=S)*)cc21; pT = C[C@@H](OP(=O)(O)O)[C@H](N)C(=O)O; pS = N[C@@H](COP(=O)(O)O)C(=O)O; Aβ = not defined here

Key:
[1] = target: MpIBP_RIII1-4 (Marinomonas primoryensis ice-binding protein, Region III domains 1-4), truncated construct ending at N507 (Marinomonas primoryensis); assay: fluorescence polarisation
[2] = target: MpIBP_RIII1-4 (Marinomonas primoryensis ice-binding protein, Region III domains 1-4), truncated construct ending at N507 (Marinomonas primoryensis); assay: fluorescence polarisation; remark: listed apart in the source
[3] = target: MpIBP_RIII1-4 (Marinomonas primoryensis ice-binding protein, Region III domains 1-4), truncated construct ending at N507 (Marinomonas primoryensis); assay: ITC

B1: FITC-AβGPDSD (peptide)
peptide: {FITC-Aβ}-GPDSD
modifications: reading uncertain; also: printed as FITC-AβGPDSD
Q: How did the EC50 [1] turn out when B1 was run?
A: 160 nM

B2: FITC-AGAYD (peptide)
peptide: {FITC}-AGAYD
Q: With B2 as the binder, how does the EC50 [2] read?
A: 170 nM

B3: AGYTS (unlabelled peptide) (peptide)
peptide: AGYTS
Q: With B3 as the binder, how does the Kd [3] read?
A: 59 nM

Q: And the stoichiometry N [3]?
A: 1

B4: AGYTD (unlabelled peptide) (peptide)
peptide: AGYTD
Q: For B4, which Kd [3] is on record?
A: 67 nM

Q: And the stoichiometry N [3]?
A: 1

B5: FITC-AβGPDSN (peptide)
peptide: {FITC-Aβ}-GPDSN
modifications: reading uncertain; also: printed as FITC-AβGPDSN
Q: How did the EC50 [1] turn out when B5 was run?
A: 270 nM

B6: FITC-IKARAS(pS)… (peptide)
peptide: {FITC}-IKARAS[pS]SPVILVGTHLD-OH
Q: B6 was tested. Which EC50 [1] did it give?
A: 2700 nM

B7: FITC-AβDSTPD (peptide)
peptide: {FITC-Aβ}-DSTPD
modifications: reading uncertain; also: printed as FITC-AβDSTPD
Q: Which EC50 [1] does the source give for B7 here?
A: 27000 nM

Q: What about the affinity [1] of the same binder?
A: 26 µM

B8: FITC-AGYTS (peptide)
peptide: {FITC}-AGYTS
Q: For B8, which EC50 [1] is on record?
A: 30 nM

B9: FITC-AGCTD (peptide)
peptide: {FITC}-AGCTD
Q: B9 was tested. Which EC50 [1] did it give?
A: 23 nM

B10: AGAGD (unlabelled peptide) (peptide)
peptide: AGAGD
Q: What does the source list for B10?
A: Kd [3]: 1900 nM; stoichiometry N [3]: 1

B11: FITC-AGAPD (peptide)
peptide: {FITC}-AGAPD
Q: For B11, which EC50 [2] is on record?
A: 4600 nM

B12: FITC-AGASD (peptide)
peptide: {FITC}-AGASD
Q: How did the EC50 [2] turn out when B12 was run?
A: 310 nM

B13: FITC-AGAGF (peptide)
peptide: {FITC}-AGAGF
Q: With B13 as the binder, how does the EC50 [1] read?
A: 7200 nM

B14: FITC-RHKKLMFK(pT)EGPDSD (peptide)
peptide: {FITC}-RHKKLMFK[pT]EGPDSD-OH
Q: For B14, which EC50 [1] is on record?
A: 690 nM

B15: FITC-AGYTD (peptide)
peptide: {FITC}-AGYTD
Q: Which EC50 [1] does the source give for B15 here?
A: 29 nM

B16: FITC-AGAGY (peptide)
peptide: {FITC}-AGAGY
Q: B16 was tested. Which EC50 [1] did it give?
A: 4600 nM

B17: FITC-AβDSTD (peptide)
peptide: {FITC-Aβ}-DSTD
modifications: reading uncertain; also: printed as FITC-AβDSTD
Q: Which EC50 [1] does the source give for B17 here?
A: 110 nM

B18: FITC-AβGPDD (peptide)
peptide: {FITC-Aβ}-GPDD
modifications: reading uncertain; also: printed as FITC-AβGPDD
Q: With B18 as the binder, how does the fold by which FITC-AβGPDSD binds stronger than FITC-AβGPDD [1] read?
A: 20 fold

B19: FITC-AGAGD (peptide)
peptide: {FITC}-AGAGD
Q: B19 was tested. Which EC50 [1] did it give?
A: 3200 nM

Q: What about the EC50 [2] of the same binder?
A: 1500 nM

B20: FITC-AGAGI (peptide)
peptide: {FITC}-AGAGI
Q: B20 was tested. Which EC50 [1] did it give?
A: 4400 nM

B21: FITC-AGAFD (peptide)
peptide: {FITC}-AGAFD
Q: How did the EC50 [2] turn out when B21 was run?
A: 180 nM

B22: FITC-AGATD (peptide)
peptide: {FITC}-AGATD
Q: Which EC50 [1] does the source give for B22 here?
A: 72 nM

Q: And the EC50 [2]?
A: 89 nM

B23: AGATD (unlabelled peptide) (peptide)
peptide: AGATD
Q: B23 was tested. Which Kd [3] did it give?
A: 86 nM

Q: What about the stoichiometry N [3] of the same binder?
A: 1

B24: FITC-AGWTD (peptide)
peptide: {FITC}-AGWTD
Q: Which EC50 [1] does the source give for B24 here?
A: 23 nM
